Assay results reported in US11819531B2, “Multifunctional zwitterionic polymer conjugates” (Kodiak Sciences Inc., priority 2009, dated 2023).

System: Liver esterase from rabbit liver
Assay: Camptothecin release study from camptothecin grafted copolymer (esterase incubation, GPC at 370 nm)
Format: in vitro ADME
Details: copolymer approximately 10 mg/ml in Tris Buffer, pH=8.0, rabbit liver esterase, 37° C.
Method: Samples of camptothecin grafted copolymer were prepared at approximately 10 mg/ml in Tris Buffer, pH=8.0. Liver esterase from rabbit liver (Sigma-Aldrich E0887-IKU, Lot #061K74451) was added to the sample and the sample was incubated at 37° C. for up to 65 hours.
GPC analysis of the samples was made using an HPLC system consisting of a Waters Alliance 2995 with Waters 2410 Refractive Index Detector, Waters 2996 Photodiode Array Detector, and a Shodex Protein KW-803 column. The mobile phase used for the elution was phosphate buffered saline containing 10% absolute ethanol. The flow rate was set to 1 ml/min and the presence of camptothecin monitored at 370 nm. Ten microliter injections of the samples were made at each time point.

Substance: Camptothecin PC-Copolymer [camptothecin grafted copolymer]
- Camptothecin Released (Time 0 h): 0.059 mg/mL
- Camptothecin Released (Time 1 h): 0.079 mg/mL
- Camptothecin Released (Time 2 h): 0.132 mg/mL
- Camptothecin Released (Time 3 h): 0.130 mg/mL
- Camptothecin Released (Time 4 h): 0.128 mg/mL
- Camptothecin Released (Time 17 h): 0.208 mg/mL
- Camptothecin Released (Time 26 h): 0.251 mg/mL
- Camptothecin Released (Time 41 h): 0.335 mg/mL
- Camptothecin Released (Time 65 h): 0.427 mg/mL
